# What was measured:
# [1] = biological target: FITC-labeled 45-mer peptide derived from the C-terminal region of IKKβ; assay: fluorescence polarisation; fluorescence anisotropy binding assay with the FITC-labeled IKKβ 45-mer peptide and NEMO proteins; conditions not told (refs 13, 23)
# [2] = biological target: 45-mer peptide of IKKβ (as used in the CD experiments); assay: circular dichroism (spectra and thermal denaturation with and without ligand); 10 µM NEMO protein with or without equimolar IKKβ 45-mer peptide, incubated 1 h at room temperature; 20 mM sodium phosphate, 500 mM NaCl, pH 7.4; spectra at 25 °C, melt 10 to 70 °C at 222 nm
# full-length WT NEMO (aa 1–419), bacterially expressed, sequence (Q9Y6K9 whole entry, the tested form may be a part): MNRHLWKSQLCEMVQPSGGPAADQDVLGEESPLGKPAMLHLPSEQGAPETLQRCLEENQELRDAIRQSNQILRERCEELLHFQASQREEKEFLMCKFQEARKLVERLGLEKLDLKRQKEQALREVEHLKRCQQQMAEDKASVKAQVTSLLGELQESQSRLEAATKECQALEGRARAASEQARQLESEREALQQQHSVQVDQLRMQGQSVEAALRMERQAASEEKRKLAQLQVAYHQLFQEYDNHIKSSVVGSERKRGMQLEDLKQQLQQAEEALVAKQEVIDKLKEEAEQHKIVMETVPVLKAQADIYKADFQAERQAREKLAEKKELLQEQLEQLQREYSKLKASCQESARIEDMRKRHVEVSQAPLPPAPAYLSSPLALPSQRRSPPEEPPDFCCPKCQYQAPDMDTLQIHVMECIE
Kd [1],increase in Tm with equimolar peptide [2],Substance
33 nM,5 °C,"NEMO 1–419 OPTN-IVD, bacterially expressed (from UniProt Q9Y6K9 1-419) (natural protein)"
4.7 nM,3 °C,"full-length WT NEMO (aa 1–419), bacterially expressed (from UniProt Q9Y6K9 1-419) (natural protein)"

# — doi:10.1101/2023.05.25.542299
